Test results taken from PMC5737651.
Read-outs that look alike come from different tables or passages of the source.

Key:
Experiment in all cases: EMSA
FANCD2 WT full-length [1] = molecular target: T1, FANCD2 WT full-length (human, UniProt Q9BXW9 1-1451)
F2 [2] = molecular target: T2, F2 (human, UniProt Q9BXW9 589-840)
F4 [3] = molecular target: T3, F4 (human, UniProt Q9BXW9 1179-1451)
F3Mut1aa [4] = molecular target: T4, F3Mut1aa (human, UniProt Q9BXW9 841-1178, K865A)
F1Mut5aa (K-A) [5] = molecular target: T5, F1Mut5aa (K-A) (human, UniProt Q9BXW9 1-588, S29A;K30A;K31A;T32A;K34A)
T5 sequence (Q9BXW9 1-588 S29A/K30A/K31A/T32A/K34A): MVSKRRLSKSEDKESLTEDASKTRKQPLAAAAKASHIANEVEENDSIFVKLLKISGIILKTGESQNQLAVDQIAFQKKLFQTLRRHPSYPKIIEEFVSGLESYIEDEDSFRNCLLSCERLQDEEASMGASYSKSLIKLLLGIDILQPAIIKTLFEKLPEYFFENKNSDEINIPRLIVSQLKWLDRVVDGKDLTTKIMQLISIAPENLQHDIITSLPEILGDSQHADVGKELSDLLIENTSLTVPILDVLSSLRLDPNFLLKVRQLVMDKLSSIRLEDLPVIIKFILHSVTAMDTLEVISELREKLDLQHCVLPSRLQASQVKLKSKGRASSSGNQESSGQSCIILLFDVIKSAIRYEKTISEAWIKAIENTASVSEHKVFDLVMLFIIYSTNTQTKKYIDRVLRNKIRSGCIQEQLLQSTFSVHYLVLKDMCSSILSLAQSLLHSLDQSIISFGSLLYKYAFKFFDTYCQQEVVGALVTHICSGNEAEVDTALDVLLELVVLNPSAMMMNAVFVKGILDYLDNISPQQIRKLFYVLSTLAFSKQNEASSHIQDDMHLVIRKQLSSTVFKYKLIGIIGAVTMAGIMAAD

F3 = F3 (human, UniProt Q9BXW9 841-1178)
F3, sequence (Q9BXW9 841-1178): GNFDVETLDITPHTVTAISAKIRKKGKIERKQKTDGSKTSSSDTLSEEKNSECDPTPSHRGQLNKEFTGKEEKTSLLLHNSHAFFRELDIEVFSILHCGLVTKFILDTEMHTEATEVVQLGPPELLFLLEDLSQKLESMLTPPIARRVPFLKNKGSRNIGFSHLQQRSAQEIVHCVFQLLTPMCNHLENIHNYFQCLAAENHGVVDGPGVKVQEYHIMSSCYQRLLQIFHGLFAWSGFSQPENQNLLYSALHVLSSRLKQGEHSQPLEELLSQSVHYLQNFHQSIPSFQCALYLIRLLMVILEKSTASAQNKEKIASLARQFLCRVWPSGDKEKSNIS

F1 = F1 (human, UniProt Q9BXW9 1-588)
F1, sequence (Q9BXW9 1-588): as the sequence (Q9BXW9 1-588 S29A/K30A/K31A/T32A/K34A) above, with A29S, A30K, A31K, A32T, A34K counted along it

F2 [6] = molecular target: T2, F2; remark: listed apart in the source
F4 [7] = molecular target: T3, F4; remark: listed apart in the source
F3Mut1aa [8] = molecular target: T4, F3Mut1aa; remark: listed apart in the source
F1Mut5aa (K-A) [9] = molecular target: T5, F1Mut5aa (K-A); remark: listed apart in the source
FANCD2 WT full-length [10] = molecular target: T1, FANCD2 WT full-length; remark: listed apart in the source

T4 sequence (Q9BXW9 841-1178 K865A): as the sequence (Q9BXW9 841-1178) above, with K25A counted along it
T1 sequence (Q9BXW9 whole entry): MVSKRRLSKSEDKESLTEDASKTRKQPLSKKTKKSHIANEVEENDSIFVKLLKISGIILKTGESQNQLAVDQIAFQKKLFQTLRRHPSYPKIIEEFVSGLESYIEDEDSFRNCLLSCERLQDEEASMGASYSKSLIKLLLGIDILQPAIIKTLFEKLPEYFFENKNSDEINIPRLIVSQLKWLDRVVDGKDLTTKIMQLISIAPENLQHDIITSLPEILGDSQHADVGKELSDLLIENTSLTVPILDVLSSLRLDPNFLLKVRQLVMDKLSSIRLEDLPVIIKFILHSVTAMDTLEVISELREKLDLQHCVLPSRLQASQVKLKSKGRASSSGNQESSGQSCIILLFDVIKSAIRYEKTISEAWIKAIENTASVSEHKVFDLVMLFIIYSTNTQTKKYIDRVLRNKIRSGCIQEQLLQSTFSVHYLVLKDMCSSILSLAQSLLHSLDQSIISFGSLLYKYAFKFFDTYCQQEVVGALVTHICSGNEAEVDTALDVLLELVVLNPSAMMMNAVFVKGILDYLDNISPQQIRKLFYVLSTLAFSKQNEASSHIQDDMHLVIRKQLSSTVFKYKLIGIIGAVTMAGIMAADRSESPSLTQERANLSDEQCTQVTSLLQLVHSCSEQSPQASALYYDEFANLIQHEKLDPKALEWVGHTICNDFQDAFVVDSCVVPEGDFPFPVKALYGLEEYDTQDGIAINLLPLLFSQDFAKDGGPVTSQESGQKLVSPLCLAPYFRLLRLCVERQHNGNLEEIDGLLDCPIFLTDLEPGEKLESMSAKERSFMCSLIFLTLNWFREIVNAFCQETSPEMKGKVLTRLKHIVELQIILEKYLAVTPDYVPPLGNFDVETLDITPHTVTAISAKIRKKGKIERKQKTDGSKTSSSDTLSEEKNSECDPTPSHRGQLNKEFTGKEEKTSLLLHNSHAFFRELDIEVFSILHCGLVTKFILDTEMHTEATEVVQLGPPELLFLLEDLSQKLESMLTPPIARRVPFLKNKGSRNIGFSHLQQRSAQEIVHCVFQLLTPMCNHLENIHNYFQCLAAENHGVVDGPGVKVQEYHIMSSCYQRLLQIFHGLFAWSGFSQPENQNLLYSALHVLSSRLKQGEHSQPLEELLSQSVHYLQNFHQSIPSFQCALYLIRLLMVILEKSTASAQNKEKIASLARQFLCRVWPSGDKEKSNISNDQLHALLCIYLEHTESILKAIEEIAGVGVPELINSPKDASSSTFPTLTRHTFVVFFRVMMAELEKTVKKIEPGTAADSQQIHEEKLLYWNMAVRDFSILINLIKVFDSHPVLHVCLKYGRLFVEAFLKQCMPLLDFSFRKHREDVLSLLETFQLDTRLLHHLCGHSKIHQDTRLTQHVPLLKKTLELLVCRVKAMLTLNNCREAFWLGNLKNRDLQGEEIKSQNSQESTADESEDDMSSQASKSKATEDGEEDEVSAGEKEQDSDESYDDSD
T3 sequence (Q9BXW9 1179-1451): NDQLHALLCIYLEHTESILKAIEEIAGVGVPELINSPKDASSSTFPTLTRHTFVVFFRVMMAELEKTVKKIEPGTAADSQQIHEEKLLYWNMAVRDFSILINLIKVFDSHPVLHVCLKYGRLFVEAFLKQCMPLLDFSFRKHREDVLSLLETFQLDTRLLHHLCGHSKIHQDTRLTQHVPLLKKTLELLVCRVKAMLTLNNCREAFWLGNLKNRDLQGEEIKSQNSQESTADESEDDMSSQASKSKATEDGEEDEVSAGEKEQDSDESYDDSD
T2 sequence (Q9BXW9 589-840): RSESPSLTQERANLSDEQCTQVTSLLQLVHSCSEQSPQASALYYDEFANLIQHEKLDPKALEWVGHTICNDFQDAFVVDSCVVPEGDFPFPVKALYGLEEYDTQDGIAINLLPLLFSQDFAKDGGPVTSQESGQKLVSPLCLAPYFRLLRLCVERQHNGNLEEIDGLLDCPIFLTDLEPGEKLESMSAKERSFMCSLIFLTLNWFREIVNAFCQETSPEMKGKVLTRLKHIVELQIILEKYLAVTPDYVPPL

Row | Binder | binding result (FANCD2 WT full-length [1]) | binding result (F2 [2]) | binding result (F4 [3]) | binding result (F3Mut1aa [4]) | binding result (F1Mut5aa (K-A) [5]) | binding result (F3) | binding result (F1) | binding result (F2 [6]) | binding result (F4 [7]) | binding result (F3Mut1aa [8]) | binding result (F1Mut5aa (K-A) [9]) | binding result (FANCD2 WT full-length [10])
1 | ssDNA (SS) (ssDNA) DNA: GGGTGAACCTGCAGGTGGGCAAAGATGTCCTAGCAATGTAATCGTCAAGCTTTATGCCGT | binds | no binding | no binding | no binding | no binding | binds | binds |  |  |  |  | 
2 | Holliday junction (HJ) (structured_DNA) DNA 1: GGGTGAACCTGCAGGTGGGCAAAGATGTCCTAGCAATGTAATCGTCAAGCTTTATGCCGT DNA 2: ACGCTGCCGAATTCTACCAGTGCCAGCGACGGACATCTTTGCCCACCTGCAGGTTCACCC DNA 3: ACGGCATAAAGCTTGACGATTACATTGCTACATGGAGCTGTCTAGAGGATCCGACTATCG DNA 4: CGATAGTCGGATCCTCTAGACAGCTCCATGGTCGCTGGCACTGGTAGAATTCGGCAGCGT |  |  |  |  |  |  |  | no binding | no binding | no binding | no binding | binds
